Usually Vmax stands for the rate approached at saturating substrate.

What all share (test): Vmax is the maximum velocity of the TcTR (Trypanosoma cruzi trypanothione reductase) catalyzed NADPH oxidation.
Substrate in data set [1]: CC1=C(CCC(=O)NCCCCNCCCNC(=O)CCC2=C(C)C(=O)c3cccc(O)c3C2=O)C(=O)c2c(O)cccc2C1=O
Substrate in data set [2]: CC1=C(CCC(=O)NCCCN2CCN(CCCNC(=O)CCC3=C(C)C(=O)c4cccc(O)c4C3=O)CC2)C(=O)c2c(O)cccc2C1=O
Substrate in data set [3]: CC1=C(CCC(=O)NCCCN2CCN(CCCNC(=O)CCC3=C(C)C(=O)c4ccccc4C3=O)CC2)C(=O)c2ccccc2C1=O
Substrate in data set [4]: CC1=C(CCC(=O)NCCCNCCCNC(=O)CCC2=C(C)C(=O)c3cccc(O)c3C2=O)C(=O)c2c(O)cccc2C1=O
Substrate in data set [5]: CC1=C(CCCC(=O)NCCCCNCCCNC(=O)CCCC2=C(C)C(=O)c3cccc(O)c3C2=O)C(=O)c2c(O)cccc2C1=O
Substrate in data set [6]: CC1=C(CCCC(=O)NCCCCNCCCNC(=O)CCCC2=C(C)C(=O)c3ccccc3C2=O)C(=O)c2ccccc2C1=O
Substrate in data set [7]: CC1=C(CCCC(=O)NCCCN2CCN(CCCNC(=O)CCCC3=C(C)C(=O)c4cccc(O)c4C3=O)CC2)C(=O)c2c(O)cccc2C1=O
Substrate in data set [8]: CC1=C(CCCC(=O)NCCCN2CCN(CCCNC(=O)CCCC3=C(C)C(=O)c4ccccc4C3=O)CC2)C(=O)c2ccccc2C1=O
Substrate in data set [9]: CC1=C(CCCC(=O)NCCCNCCCNC(=O)CCCC2=C(C)C(=O)c3cccc(O)c3C2=O)C(=O)c2c(O)cccc2C1=O
Substrate in data set [10]: CC1=C(CCCCC(=O)NCCCCNCCCNC(=O)CCCCC2=C(C)C(=O)c3cccc(O)c3C2=O)C(=O)c2c(O)cccc2C1=O
Substrate in data set [11]: CC1=C(CCCCC(=O)NCCCCNCCCNC(=O)CCCCC2=C(C)C(=O)c3ccccc3C2=O)C(=O)c2ccccc2C1=O
Substrate in data set [12]: CC1=C(CCCCC(=O)NCCCN2CCN(CCCNC(=O)CCCCC3=C(C)C(=O)c4ccccc4C3=O)CC2)C(=O)c2ccccc2C1=O
Substrate in data set [13]: CC1=C(CCCCC(=O)NCCCNCCCNC(=O)CCCCC2=C(C)C(=O)c3cccc(O)c3C2=O)C(=O)c2c(O)cccc2C1=O
Substrate in data set [14]: CC1=C(CCCCC(=O)NCCCNCCCNC(=O)CCCCC2=C(C)C(=O)c3ccccc3C2=O)C(=O)c2ccccc2C1=O
Substrate in data set [15]: CC1=C(CCCCCC(=O)NCCCCNCCCNC(=O)CCCCCC2=C(C)C(=O)c3cccc(O)c3C2=O)C(=O)c2c(O)cccc2C1=O
Substrate in data set [16]: CC1=C(CCCCCC(=O)NCCCCNCCCNC(=O)CCCCCC2=C(C)C(=O)c3ccccc3C2=O)C(=O)c2ccccc2C1=O
Substrate in data set [17]: CC1=C(CCCCCC(=O)NCCCN2CCN(CCCNC(=O)CCCCCC3=C(C)C(=O)c4cccc(O)c4C3=O)CC2)C(=O)c2c(O)cccc2C1=O
Substrate in data set [18]: CC1=C(CCCCCC(=O)NCCCN2CCN(CCCNC(=O)CCCCCC3=C(C)C(=O)c4ccccc4C3=O)CC2)C(=O)c2ccccc2C1=O
Substrate in data set [19]: CC1=C(CCCCCC(=O)NCCCNCCCNC(=O)CCCCCC2=C(C)C(=O)c3cccc(O)c3C2=O)C(=O)c2c(O)cccc2C1=O
Substrate in data set [20]: CC1=CC(=O)c2ccccc2C1=O

B1: Trypanothione reductase (Trypanosoma cruzi), P28593 (protein)
chain: MMSKIFDLVVIGAGSGGLEAAWNAATLYKKRVAVIDVQMVHGPPFFSALGGTCVNVGCVPKKLMVTGAQYMEHLRESAGFGWEFDRTTLRAEWKKLIAVKDEAVLNINKSYEEMFRDTEGLEFFLGWGSLESKNVVNVRESADPASAVKERLETENILLASGSWPHMPNIPGIEHCISSNEAFYLPEPPRRVLTVGGGFISVEFAGIFNAYKPKDGQVTLCYRGEMILRGFDHTLREELTKQLTANGIQILTKENPAKVELNADGSKSVTFESGKKMDFDLVMMAIGRSPRTKDLQLQNAGVMIKNGGVQVDEYSRTNVSNIYAIGDVTNRVMLTPVAINEAAALVDTVFGTNPRKTDHTRVASAVFSIPPIGTCGLIEEVASKRYEVVAVYLSSFTPLMHNISGSKYKTFVAKIITNHSDGTVLGVHLLGDNAPEIIQGVGICLKLNAKISDFYNTIGVHPTSAEELCSMRTPSYYYVKGEKMEKPSEASL
On to B1, for which the Vmax (µM min-1 mg-1) in data set [1] stood at 4.44. The Vmax in data set [2] stood at 4.74 µM/min/mg; in data set [3], 0.74 µM/min/mg; in data set [4] it was 12.4 µM/min/mg; in data set [5], 4 µM/min/mg; in [6] it was 2.04 µM/min/mg; in [7], 2.16 µM/min/mg. In addition, the Vmax in data set [8] is 0.6 µM/min/mg; in data set [9], 4.29 µM/min/mg; in [10], 3.11 µM/min/mg; in data set [11] it was 1.11 µM/min/mg; in data set [12] it was 1.61 µM/min/mg; in data set [13], 3.83 µM/min/mg. For the same protein, the maximum rate (Vmax) stood at 0.34 µM/min/mg in data set [14]; 5.91 µM/min/mg in data set [15]; 1.2 µM/min/mg in data set [16]; 1.61 µM/min/mg in data set [17]; 0.47 µM/min/mg in data set [18]; 4.87 µM/min/mg in data set [19]. For the same protein, in data set [20], the Vmax stood at 0.26 µM/min/mg.
